Measurements as given in PMC3373503, “Ca^2+ Regulates the Drosophila Stoned-A and Stoned-B Proteins Interaction with the C2B Domain of Synaptotagmin-1” (PLoS ONE, 2012).

What was measured:
Assay in all cases: pull-down; 1.5 µM GST protein as bait on glutathione resin, 0.25 µM MBP protein as prey; 2 h at 4°C; 10 mM HEPES pH 7.4, 1 mM MgCl2, 1 mg/ml BSA, 1 mM CaCl2 (Ca2+ binding buffer); eluted with glutathione, anti-MBP Western blot, densitometry
[1] = target: GST-ΔW, C2B domain of Synaptotagmin-1 truncated immediately before the WHTL motif (Drosophila) (UniProt P21521)
[2] = target: GST-C2B, C2B domain of Synaptotagmin-1 (wild type) (Drosophila) (UniProt P21521)
[3] = target: T1, GST-C2B, C2B domain of Synaptotagmin-1 (wild type) (Drosophila, UniProt P21521 323-474); settings: both partners purified
T1 construct: Synaptotagmin-1 (SYT-1), Drosophila, C2B domain, printed as 'bases 323–474' (read as residues 323-474), from the Drosophila syt cDNA clone, in pGEX-4T-1; also called GST SYT-1 C2B domain; C2B SYT-1; source: E. coli, purified (glutathione resin, washed free of nucleic acids)

| Molecule | fold binding against binding to GST-C2B [1] [fold] | fold binding against binding to GST-C2A [2] [fold] | fold binding in Ca2+ buffer against EGTA buffer [2] [fold] | binding result [3] |
| --- | --- | --- | --- | --- |
| MBP-STNA (CCD), coiled-coil domain of Stoned-A (from UniProt Q24211 1-850) (domain or fragment) | > 3 | 3 | 2.5 | – |
| MBP-STNB (MHD), µ-homology domain of Stoned-B (from UniProt Q24212 1-1262) (domain or fragment) | > 5 | 4 | 4 | – |
| MBP-C2B, C2B domain of Synaptotagmin-1 (wild type) (from UniProt P21521 323-474) (domain or fragment) | 4 | – | – | – |
| MBP-C2B, C2B domain of Synaptotagmin-1 (wild type) (domain or fragment, Drosophila, UniProt P21521 323-474, looked up, Synaptotagmin-1 (SYT-1), Drosophila, C2B domain; 'the DNA encoding the C2B domain was also inserted into pMAL-c2X'; also called full length MBP-C2B; wild-type MBP-C2B; source: E. coli, purified (amylose resin, washed free of nucleic acids)) QEKLGDICFSLRYVPTAGKLTVVILEAKNLKKMDVGGLSDPYVKIAIMQNGKRLKKKKTSIKKCTLNPYYNESFSFEVPFEQIQKICLVVTVVDYDRIGTSEPIGRCILGCMGTGTELRHWSDMLASPRRPIAQWHTLKDPEETDEILKNMK | – | – | – | binds |
